Holding throughout (experiment): cell-based or functional assay
In test [1] the target is T1, IFN-gamma receptor on HEK-Dual cells (Human IFN-γ SEAP/Luciferase Reporter Cells, hkd-ifng).
T1 sequence (P15260 whole entry, looked up): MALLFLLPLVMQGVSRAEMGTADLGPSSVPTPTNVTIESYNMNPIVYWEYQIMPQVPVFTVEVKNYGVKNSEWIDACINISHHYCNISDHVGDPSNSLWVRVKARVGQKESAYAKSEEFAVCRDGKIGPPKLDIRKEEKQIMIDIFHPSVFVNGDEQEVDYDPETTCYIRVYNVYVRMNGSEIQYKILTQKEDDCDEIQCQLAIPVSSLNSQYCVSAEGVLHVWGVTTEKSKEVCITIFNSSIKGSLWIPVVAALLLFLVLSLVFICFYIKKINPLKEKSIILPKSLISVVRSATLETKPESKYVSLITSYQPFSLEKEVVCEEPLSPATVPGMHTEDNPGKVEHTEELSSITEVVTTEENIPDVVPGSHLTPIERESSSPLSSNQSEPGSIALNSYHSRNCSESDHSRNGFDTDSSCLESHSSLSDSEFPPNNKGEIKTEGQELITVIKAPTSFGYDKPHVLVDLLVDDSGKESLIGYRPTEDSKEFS
T1 sequence (P38484 whole entry, looked up): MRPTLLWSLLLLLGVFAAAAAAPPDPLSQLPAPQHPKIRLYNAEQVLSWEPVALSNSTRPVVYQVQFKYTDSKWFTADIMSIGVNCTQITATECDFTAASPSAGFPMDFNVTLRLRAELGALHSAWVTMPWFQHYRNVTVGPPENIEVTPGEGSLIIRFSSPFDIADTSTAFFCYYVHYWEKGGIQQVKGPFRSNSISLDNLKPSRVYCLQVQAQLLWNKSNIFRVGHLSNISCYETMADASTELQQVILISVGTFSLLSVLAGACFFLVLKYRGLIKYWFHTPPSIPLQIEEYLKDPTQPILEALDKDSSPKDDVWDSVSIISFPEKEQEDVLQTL

The target of test [2] is T2, IL-10 receptors R1 and R2 on HEK-Blue IL-10 reporter cells (UniProt Q13651).
T2 sequence (looked up) 1: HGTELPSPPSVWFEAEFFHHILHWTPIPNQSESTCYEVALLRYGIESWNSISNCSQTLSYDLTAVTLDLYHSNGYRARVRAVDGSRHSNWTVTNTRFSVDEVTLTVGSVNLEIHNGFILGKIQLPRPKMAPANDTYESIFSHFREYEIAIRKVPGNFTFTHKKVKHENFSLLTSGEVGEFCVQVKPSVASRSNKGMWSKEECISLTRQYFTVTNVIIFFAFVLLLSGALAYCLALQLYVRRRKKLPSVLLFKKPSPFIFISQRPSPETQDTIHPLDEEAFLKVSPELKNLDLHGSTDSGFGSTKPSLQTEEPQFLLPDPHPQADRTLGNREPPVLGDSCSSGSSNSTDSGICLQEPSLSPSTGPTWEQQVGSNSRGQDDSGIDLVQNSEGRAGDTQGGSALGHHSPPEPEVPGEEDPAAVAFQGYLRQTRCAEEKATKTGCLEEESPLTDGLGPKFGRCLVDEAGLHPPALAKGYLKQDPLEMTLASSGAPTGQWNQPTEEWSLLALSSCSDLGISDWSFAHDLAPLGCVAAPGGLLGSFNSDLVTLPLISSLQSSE
T2 sequence (looked up) 2: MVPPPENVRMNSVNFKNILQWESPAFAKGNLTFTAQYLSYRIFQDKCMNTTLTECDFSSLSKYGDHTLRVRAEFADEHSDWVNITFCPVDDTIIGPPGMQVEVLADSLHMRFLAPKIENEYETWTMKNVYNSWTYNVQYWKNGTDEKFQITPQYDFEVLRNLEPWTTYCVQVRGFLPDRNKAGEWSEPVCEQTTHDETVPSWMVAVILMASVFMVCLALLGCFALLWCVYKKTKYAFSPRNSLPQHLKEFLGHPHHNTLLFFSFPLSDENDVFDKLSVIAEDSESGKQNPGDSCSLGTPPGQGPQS

Test [3] concerns the target IL-22 receptors R1 and R2 on HEK-Blue IL-22 reporter cells (UniProt Q8N6P7).
For test [4], the target named is IL-10 receptors R1 and R2 on HEK-Blue IL-10 reporter cells (UniProt Q13651). This is another data set of the same source.

From patent US20260008830A1 come the findings set out here.

IL-10 ORF (WT human IL-10 expressed and secreted by M. pneumoniae), sequence (P22301 other isoform, or with tags, fused parts or gaps limits assumed): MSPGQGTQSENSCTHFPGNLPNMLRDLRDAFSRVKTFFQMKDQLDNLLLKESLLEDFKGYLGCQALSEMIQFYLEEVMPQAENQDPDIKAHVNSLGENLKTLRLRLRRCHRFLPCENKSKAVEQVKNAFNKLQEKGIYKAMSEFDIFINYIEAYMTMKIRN
IL-22 receptors R1 and R2 on HEK-Blue IL-22 reporter cells, sequence (Q8N6P7 16-574 limits assumed): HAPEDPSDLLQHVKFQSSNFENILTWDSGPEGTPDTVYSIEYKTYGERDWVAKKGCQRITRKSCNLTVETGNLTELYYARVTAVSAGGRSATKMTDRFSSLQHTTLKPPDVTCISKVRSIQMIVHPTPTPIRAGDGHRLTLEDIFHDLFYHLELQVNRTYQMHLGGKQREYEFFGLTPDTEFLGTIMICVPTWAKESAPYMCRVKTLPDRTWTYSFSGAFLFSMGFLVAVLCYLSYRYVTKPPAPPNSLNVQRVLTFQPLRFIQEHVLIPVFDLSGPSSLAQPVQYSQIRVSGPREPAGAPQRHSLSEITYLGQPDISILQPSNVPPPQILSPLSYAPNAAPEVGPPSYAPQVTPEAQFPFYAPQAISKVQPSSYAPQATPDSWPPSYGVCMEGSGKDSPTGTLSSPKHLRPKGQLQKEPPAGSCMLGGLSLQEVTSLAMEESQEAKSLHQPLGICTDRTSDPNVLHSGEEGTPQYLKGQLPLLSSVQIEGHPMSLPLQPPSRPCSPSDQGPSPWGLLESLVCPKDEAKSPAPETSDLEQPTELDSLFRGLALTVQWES
IFNg WT (crystallised version of IFNg of PDB 6e3k), sequence (P01579 other isoform, or with tags, fused parts or gaps limits assumed): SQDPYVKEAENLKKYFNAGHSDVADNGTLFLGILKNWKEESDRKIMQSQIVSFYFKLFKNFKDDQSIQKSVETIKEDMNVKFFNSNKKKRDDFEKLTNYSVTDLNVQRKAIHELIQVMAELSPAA

In test [1], “IFNg WT (crystallised version of IFNg of PDB 6e3k) (from UniProt P01579 24-147) (ligand)” displayed an EC50 (HEK Dual cells responding to IFNγ) of 0.0866 nM.
“IL-10 ORF (WT human IL-10 expressed and secreted by M. pneumoniae) (from UniProt P22301 19-178) (ligand)”: in test [2], the Apparent Kd (M) average (HEK-Blue IL-10 SEAP reporter, absorbance 630 nm, saturation binding fit) was determined as 1.98e-10 M and the Fold change-apparentKD (against IL-10 ORF) came to 1 fold.
Regarding “WT22 (IL-22 WT used as reference for the interface mutants) (from UniProt Q9GZX6 34-179) (ligand)”, the app KD (HEK-Blue IL-22 reporter) in test [3] worked out at 0.128 nM.
For the substance “hIL-10r (commercial recombinant human IL-10, #200-10, Peprotech) (from UniProt P22301 19-178) (ligand)”, in test [4], the Apparent Kd (M) average (HEK-Blue IL-10 SEAP reporter, absorbance 630 nm, saturation binding fit) was determined as 4.61e-10 M and the Fold change-apparentKD (against IL-10 ORF) worked out at 0.43 fold.
